Measurements: publication PMC9978635

Key:
Experiment in all cases: BioID2 proximity biotinylation, streptavidin purification, TMT quantitative LC-MS
Details in all cases: untreated (-K18) neurons, 3 wk; read off a plot
[1] = molecular target: NADH:ubiquinone oxidoreductase core subunit S8 (UniProt O00217)
[2] = molecular target: SRPR
[3] = molecular target: CELF2
[4] = molecular target: TAGLN3

UniProt O00217, sequence (O00217 35-210): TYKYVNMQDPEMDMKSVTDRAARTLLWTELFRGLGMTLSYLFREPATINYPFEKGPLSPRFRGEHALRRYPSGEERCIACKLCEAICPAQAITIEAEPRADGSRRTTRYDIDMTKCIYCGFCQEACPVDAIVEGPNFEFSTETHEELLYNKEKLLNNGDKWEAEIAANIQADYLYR

enrichment (log2 abundance ratio) [1]: 2.5
other: log2 abundance ratio (mutant/WT) (log2 abundance ratio) [1]: 2
enrichment (log2 abundance ratio) [2]: 0.65
other: log2 abundance ratio (mutant/WT) (log2 abundance ratio) [2]: 2
enrichment (log2 abundance ratio) [3]: 1.2
other: log2 abundance ratio (mutant/WT) (log2 abundance ratio) [3]: 2.1
enrichment (log2 abundance ratio) [4]: 2
other: log2 abundance ratio (mutant/WT) (log2 abundance ratio) [4]: 0.95
Substance: 0N4R tau[WT]-BioID2 (from UniProt P10636-6) P301L
